Data from PMC8427231, “Mechanism of dimerization and structural features of human LI-cadherin” (The Journal of Biological Chemistry, 2021).
Changes are numbered by the printed parent chain.

T1: human LI-cadherin EC1-5 (human)
T1 chain: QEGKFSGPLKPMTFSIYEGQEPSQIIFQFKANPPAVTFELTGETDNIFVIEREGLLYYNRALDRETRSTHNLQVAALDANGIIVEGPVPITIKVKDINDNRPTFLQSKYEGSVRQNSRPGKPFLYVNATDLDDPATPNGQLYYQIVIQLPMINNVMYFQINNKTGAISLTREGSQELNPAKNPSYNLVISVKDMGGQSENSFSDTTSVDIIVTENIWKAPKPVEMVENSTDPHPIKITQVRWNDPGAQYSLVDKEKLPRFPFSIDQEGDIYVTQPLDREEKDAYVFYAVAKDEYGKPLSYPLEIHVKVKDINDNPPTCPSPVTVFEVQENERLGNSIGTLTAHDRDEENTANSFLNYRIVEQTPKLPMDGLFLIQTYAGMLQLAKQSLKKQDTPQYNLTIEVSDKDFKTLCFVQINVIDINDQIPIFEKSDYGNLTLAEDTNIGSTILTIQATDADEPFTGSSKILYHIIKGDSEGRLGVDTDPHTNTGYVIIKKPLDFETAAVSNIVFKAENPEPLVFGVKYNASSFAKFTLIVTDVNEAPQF

B1: human LI-cadherin EC1-4 N176A (domain or fragment)
chain: QEGKFSGPLKPMTFSIYEGQEPSQIIFQFKANPPAVTFELTGETDNIFVIEREGLLYYNRALDRETRSTHNLQVAALDANGIIVEGPVPITIKVKDINDNRPTFLQSKYEGSVRQNSRPGKPFLYVNATDLDDPATPNGQLYYQIVIQLPMINAVMYFQINNKTGAISLTREGSQELNPAKNPSYNLVISVKDMGGQSENSFSDTTSVDIIVTENIWKAPKPVEMVENSTDPHPIKITQVRWNDPGAQYSLVDKEKLPRFPFSIDQEGDIYVTQPLDREEKDAYVFYAVAKDEYGKPLSYPLEIHVKVKDINDNPPTCPSPVTVFEVQENERLGNSIGTLTAHDRDEENTANSFLNYRIVEQTPKLPMDGLFLIQTYAGMLQLAKQSLKKQDTPQYNLTIEVSDKDFKTLCFVQINVID
notes: human LI-cadherin, extracellular cadherin repeats 1-4, point mutant; Parent: m4; source: Expi293F cells, culture supernatant, purified (Ni-NTA IMAC, SEC)
B2: human LI-cadherin EC1-4 V210A (domain or fragment)
chain: B1 chain with A154N, V188A
notes: as for B1
B3: human LI-cadherin EC1-4 L355A (domain or fragment)
chain: B1 chain with A154N, L333A
notes: as for B1
B4: human LI-cadherin EC1-4 Y399A (domain or fragment)
chain: B1 chain with A154N, Y377A
notes: as for B1
B5: human LI-cadherin EC1-4 Q404A (domain or fragment)
chain: B1 chain with A154N, Q382A
notes: as for B1
B6: human LI-cadherin EC1-4 N222A (domain or fragment)
chain: B1 chain with A154N, N200A
notes: as for B1
B7: human LI-cadherin EC1-4 (domain or fragment)
chain: B1 chain with A154N
modifications: N-glycans (four modelled on chain A, two on chain B of the crystal structure; sites not given)
notes: human LI-cadherin, extracellular cadherin repeats 1-4; Theoretical mass without glycan 49.8 kDa; also called EC1-4WT; WT; source: Expi293F cells, culture supernatant, purified (Ni-NTA IMAC, SEC)
B8: human LI-cadherin EC1-4 N371A (domain or fragment)
chain: B1 chain with A154N, N349A
notes: as for B1
B9: human LI-cadherin EC1-2 (domain or fragment)
chain: GPLKPMTFSIYEGQEPSQIIFQFKANPPAVTFELTGETDNIFVIEREGLLYYNRALDRETRSTHNLQVAALDANGIIVEGPVPITIKVKDINDNRPTFLQSKYEGSVRQNSRPGKPFLYVNATDLDDPATPNGQLYYQIVIQLPMINNVMYFQINNKTGAISLTREGSQELNPAKNPSYNLVISVKDMGGQSENSFSDTTSVDIIVTE
notes: human LI-cadherin, extracellular cadherin repeats 1-2; source: Expi293F cells, culture supernatant, purified (Ni-NTA IMAC, SEC)
B10: human LI-cadherin EC1-5 (domain or fragment)
chain: T1 chain
modifications: N-glycosylated (Expi293F), Ca2+-bound; limits by convention: mature N-terminus as in PDB 7CYM (EC1-4), end of the UniProt Cadherin 5 domain; His tag omitted; homodimerizes / N-glycosylated …

Legend:
[1] = biological target: the molecule itself; test: SEC-MALS; Superose 12 10/300 GL, 45 μl injected at 100 μM or 50 μM, eluted at about 4 μM; protein conjugate analysis
[2] = biological target: the molecule itself; test: AUC; sedimentation velocity (SV-AUC), 20 °C, buffer A (10 mM Hepes-NaOH pH 7.5, 150 mM NaCl, 3 mM CaCl2); EC1-7 at 1-20 μM, EC1-2, EC3-4, EC1-4, EC1-5 at 1-60 μM, EC1-4F224A at 1-120 μM; KD of the monomer-dimer equilibrium (dimer to monomers) from the weight-average sedimentation coefficient, SEDPHAT
human LI-cadherin EC1-5 = biological target: T1, human LI-cadherin EC1-5; test: as above; conditions: both partners purified

| Binder | binding result [1] | other results |
| --- | --- | --- |
| B1 | binds | – |
| B2 | binds | – |
| B3 | binds | – |
| B4 | binds | – |
| B5 | binds | – |
| B6 | binds | – |
| B7 | – | Kd [2]: 39.8 µM; stoichiometry N [2]: 2 |
| B8 | binds | – |
| B9 | – | Kd [2]: 75 µM; stoichiometry N [2]: 2 |
| B10 | – | Kd (human LI-cadherin EC1-5): 22.8 µM; stoichiometry N (human LI-cadherin EC1-5): 2 |
